Data as given in US20230212554A1.

Assays:
[1] = substrate: NP of A/Wisconsin/67/2005(H3N2/H3W) (influenza A virus A/Wisconsin/67/2005 (H3N2)); assay: sandwich ELISA, capture IgG; NP of lysed virus titrated; HRP-NP16 detection
[2] = substrate: NP of A/Wisconsin/67/2005(H3N2/H3W) (influenza A virus A/Wisconsin/67/2005 (H3N2)); assay: sandwich ELISA, capture IgG; NP of lysed virus titrated; HRP-NP17 detection
[3] = substrate: NP of A/Wisconsin/67/2005(H3N2/H3W) (influenza A virus A/Wisconsin/67/2005 (H3N2)); assay: ELISA on virus-infected fixed MDCK cells

Sequence of NP of A/Wisconsin/67/2005(H3N2/H3W) (influenza A virus A/Wisconsin/67/2005 (H3N2)) (P03466 whole entry): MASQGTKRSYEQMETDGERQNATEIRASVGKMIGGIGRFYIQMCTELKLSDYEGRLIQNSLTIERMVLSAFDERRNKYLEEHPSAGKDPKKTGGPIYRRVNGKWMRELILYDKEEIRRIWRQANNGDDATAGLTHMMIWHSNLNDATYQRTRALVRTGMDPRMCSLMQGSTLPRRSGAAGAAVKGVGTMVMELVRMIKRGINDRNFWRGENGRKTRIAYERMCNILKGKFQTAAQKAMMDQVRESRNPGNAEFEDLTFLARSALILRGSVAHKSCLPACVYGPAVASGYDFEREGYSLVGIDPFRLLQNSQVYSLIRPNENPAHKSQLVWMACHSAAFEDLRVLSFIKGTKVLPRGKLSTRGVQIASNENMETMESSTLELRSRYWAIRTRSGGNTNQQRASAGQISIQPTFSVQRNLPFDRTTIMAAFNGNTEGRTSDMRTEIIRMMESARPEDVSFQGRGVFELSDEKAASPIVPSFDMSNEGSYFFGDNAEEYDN

B1: NP5 (antibody, V domains shown)
VH: EVQLVESGGGLVQPGGSLRLSCAASGFTISNGSIHWVRQAPGKGLEWVAGIWPSGGSTSYADSVKGRFTISADTINNSAYLQMNSLRAEDTAVYYCARWNYWGQGTLVTVSS
VL: DIQMTQSPSSLSASVGDRVTITCRASQDVGWSVAWYQQKPGKAPKLLIYGSRWLYSGVPSRFSGSGSGTDFTLTISSLQPEDFATYYCQQGYNGPLTFGQGTKVEIKR
B1 showed an EC50 [1] of 3.13 nM and an EC50 [2] of 0.879 nM.

B2: NP6 (antibody, V domains shown)
VH: EVQLVESGGGLVQPGGSLRLSCAASGFTINDGSIHWVRQAPGKGLEWVAGIGPFGGFTYYADSVKGRFTISADTSKNTAYLQMNSLRAEDTAVYYCARSGYSGSFDYWGQGTLVTVSS
VL: DIQMTQSPSSLSASVGDRVTITCRASQDVYFGVAWYQQKPGKAPKLLIYGTSYLYSGVPSRFSGSGSGTDFTLTISSLQPEDFATYYCQQFSNWPITFGQGTKVEIKR
B2 showed an EC50 [1] of 2.7 nM and an EC50 [2] of 1.98 nM.

B3: NP18 (antibody, V domains shown)
VH: EVQLVESGGGLVQPGGSLRLSCAASGFTISGGGIHWVRQAPGKGLEWVASIWPSWGSTSYADSVKGRFTISADTSKNTAYLQMNSLRAEDTAVYYCARFHNGGFLVMDYWGQGTLVTVSS
VL: DIQMTQSSSSLSASVGDRVTITCRASQDVGYYVAWYQQKPGKAPKLLIYGPRFLYSGVPSRFSGSGSGTDFTLTISSLQPEDFATYYCQQYSNWPITFGQGTKVEIKR
B3 showed an EC50 [3] of 0.192 nM and an EC50 [2] of 1000 nM.

B4: NP22 (antibody, V domains shown)
VH: EVQLVESGGGLVQPGGSLRLSCAASGFTISDWSIHWVRQAPGKGLEWVAGIWPYWGSTSYADSVKGRFTISADTSKNTAYLQMNSLRAEDTAVYYCARGFYSWFDYWGQGTLVTVSS
VL: DIQMTQSPSSLSASVGDRVTITCRASQDVFSWVAWYQQKPGKAPKLLISSASSLYSGVPSRFSGSGSGTDFTLTISSLQPEDFATYYCQQSWDYPITFGQGTKVEIKR
B4 gave an EC50 [1] of 91.4 nM and an EC50 [2] of 82.8 nM.

B5: NP19 (antibody, V domains shown)
VH: EVQLVESGGGLVQPGGSLRLSCAASGFTISSWGIHWVRQAPGKGLEWVAGIGPFWGYTSYADSVKGRFTISADTSKNTAYLQMNSLRAEDTAVYYCARFGVDNYGYMDYWGQGTLVTVSS
VL: DIQMTQSPSSLSASVGDRVTITCRASQDVSGWVAWYQQKPGKAPKLLISWSTGLYSGVPSRFSGSGSGTDFTLTISSLQPEDFATYYCQQYFNFPVTFGQGTKVEIKR
Work on B5 yielded an EC50 [3] of 0.215 nM, an EC50 [1] of 3.88 nM and an EC50 [2] of 0.765 nM.

B6: NP7 (antibody, V domains shown)
VH: EVQLVESGGGLVQPGGSLRLSCAASGFTISNGGIHWVRQAPGKGLEWVAGIGPYGGFTSYADSVKGRFTISADTSKNTAYLQMNSLRAEDTAVYYCARFYSNYYGYHGVMDYWGQGTLVTVSS
VL: DIQMTQSPSSLSASVGDRVTITCRASQDVFGWVAWYQQKPGKAPKLLISYSASLYSGVPSRFSGSGSGTDFTLTISSLQPEDFATYYCQQYFNYPLTFGQGTKVEIKR
For B6, the EC50 [1] was 2.26 nM and the EC50 [2] was 0.821 nM.

B7: NP3 (antibody, V domains shown)
VH: EVQLVESGGGLVQPGGSLRLSCAASGFTISNYGIHWVRQAPGKGLEWVAGIWPFGGFTSYADSVKGRFTISADTSKNTAYLQMNSLRAEDTAVYYCARFHWNDHGYMDYWGQGTLVTVSS
VL: DIQMTQSPSSLSASVGDRVTITCRASQDVGWYVAWYQQKPGKAPKLLIYSTTGLYSGVPSRFSGSGSGTDFTLTISSLQPEDFATYYCQQYYNYPITFGQGTKVEIKR
In the case of B7, the EC50 [3] is reported as 0.25 nM, the EC50 [1] is reported as 1.81 nM and the EC50 [2] is reported as 0.828 nM.

B8: NP16 (antibody, V domains shown)
VH: EVQLVESGGGLVQPGGSLRLSCAASGFTIGNSGIHWVRQAPGKGLEWVAWIGPYWGFTSYADSVKGRFTISADTSKNTAYLQMNSLRAEDTAVYYCARFGNHWHLFMDYWGQGTLVTVSS
VL: DIQMTQSPSSLSASVGDRVTITCRASQDVGSYVAWYQQKPGKAPKLLISWTTGLYSGVPSRFSGSGSGTDFTLTISSLQPEDFATYYCQQYFSYPVTFGQGTKVEIKR
Work on B8 yielded an EC50 [3] of 0.248 nM, an EC50 [1] of 4.1 nM and an EC50 [2] of 0.891 nM.

B9: NP17 (antibody, V domains shown)
VH: EVQLVESGGGLVQPGGSLRLSCAASGFTISGGSIHWVRQAPGKGLEWVASIWPFGGSTFYADSVKGRFTISADTSKNTAYLQMNSLRAEDTAVYYCARFGHGHNVIMDYWGQGTLVTVSS
VL: DIQMTQSPSSLSASVGDRVTITCRASQDVGYSVAWYQQKPGKAPKLLISSPGGLYSGVPSRFSGSGSGTDFTLTISSLQPEDFATYYCQQYYDYPVTFGQGTKVEIKR
In the case of B9, the EC50 [1] is reported as 3.09 nM and the EC50 [2] is reported as 1.07 nM.

B10: NP15 (antibody, V domains shown)
VH: EVQLVESGGGLVQPGGSLRLSCAASGFTISNWYIHWVRQAPGKGLEWVAGIGPYGGSTYYADSVKGRFTISADTSKNTAYLQMNSLRAEDTAVYYCARFHWDHLHGMDYWGQGTLVTVSS
VL: DIQMTQSPSSLSASVGDRVTITCRASQDVDNNVAWYQQKPGKAPKLLISYSTGLYSGVPSRFSGSGSGTDFTLTISSLQPEDFATYYCQQYWNYPITFGQGTKVEIKR
In the case of B10, the EC50 [3] is reported as 0.449 nM, the EC50 [1] is reported as 2.52 nM and the EC50 [2] is reported as 0.779 nM.

B11: NP21 (antibody, V domains shown)
VH: EVQLVESGGGLVQPGGSLRLSCAASGFTINGYGIHWVRQAPGKGLEWVAGIWPYGGSTFYADSVKGRFTISADTSKNTAYLQMNSLRAEDTAVYYCARFYNNHGGIMDYWGQGTLVTVSS
VL: DIQMTQSPSSLSASVGDRVTITCRASQDVYFYVAWYQQKPGKAPKLLIYGSRWLYSGVPSRFSGSGSGTDFTLTISSLQPEDFATYYCQQYSNFPVTFGQGTKVEIKR
B11 gave an EC50 [1] of 2.88 nM and an EC50 [2] of 0.848 nM.
